Test results as given in patent US20240139289A1 (EXTEND BIOSCIENCES, published 2024).
Each block holds one binder with its values, some of them ahead of it. Ends that are not written are not given here.

Tests used:
[1] = molecular target: T1, human parathyroid hormone receptor 1 (PTHR1) (human, UniProt Q03431 27-593); experiment: cell-based or functional assay
T1 sequence (looked up): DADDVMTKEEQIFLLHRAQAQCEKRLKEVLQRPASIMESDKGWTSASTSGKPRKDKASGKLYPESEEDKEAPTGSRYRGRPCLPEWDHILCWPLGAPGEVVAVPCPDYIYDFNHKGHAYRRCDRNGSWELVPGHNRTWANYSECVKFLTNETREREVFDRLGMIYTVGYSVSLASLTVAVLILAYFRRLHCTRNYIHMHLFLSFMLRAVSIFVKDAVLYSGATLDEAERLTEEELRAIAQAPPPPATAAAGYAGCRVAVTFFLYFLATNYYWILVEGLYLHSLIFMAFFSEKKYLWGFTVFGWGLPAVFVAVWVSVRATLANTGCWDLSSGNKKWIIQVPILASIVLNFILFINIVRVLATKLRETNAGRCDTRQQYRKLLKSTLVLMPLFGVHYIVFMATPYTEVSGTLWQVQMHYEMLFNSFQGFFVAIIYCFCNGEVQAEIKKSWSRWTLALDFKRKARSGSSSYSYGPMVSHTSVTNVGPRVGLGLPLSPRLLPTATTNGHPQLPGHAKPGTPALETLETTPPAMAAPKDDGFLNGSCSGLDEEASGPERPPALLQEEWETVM

[2] = molecular target: T2, Vitamin D binding protein (DBP) (Homo sapiens (Human)) (UniProt P02774); experiment: BLI (Octet Red96), biotinylated EXT607 on streptavidin tips, DBP 0-75 µM, steady-state fit
T2 sequence: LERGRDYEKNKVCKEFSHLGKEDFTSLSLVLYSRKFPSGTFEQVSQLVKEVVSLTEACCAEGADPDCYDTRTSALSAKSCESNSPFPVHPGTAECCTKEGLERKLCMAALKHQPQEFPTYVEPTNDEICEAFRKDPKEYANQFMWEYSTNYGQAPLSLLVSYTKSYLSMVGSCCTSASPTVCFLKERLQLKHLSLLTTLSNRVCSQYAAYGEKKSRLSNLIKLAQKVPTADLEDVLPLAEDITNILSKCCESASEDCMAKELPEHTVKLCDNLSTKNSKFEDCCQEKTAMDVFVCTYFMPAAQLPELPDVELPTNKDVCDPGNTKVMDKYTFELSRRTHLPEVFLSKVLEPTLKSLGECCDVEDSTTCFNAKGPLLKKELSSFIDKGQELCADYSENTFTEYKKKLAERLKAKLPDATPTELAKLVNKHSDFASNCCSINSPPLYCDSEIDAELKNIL

[3] = molecular target: T1, human parathyroid hormone receptor 1 …; experiment: cell-based or functional assay; remark: listed apart in the source
[4] = molecular target: T2, Vitamin D binding protein (DBP) (Homo sapiens (Human)); experiment: BLI (Octet Red96), biotinylated EXT607 on streptavidin tips, DBP 0-75 µM
[5] = molecular target: T2, Vitamin D binding protein (DBP) (Homo sapiens (Human)); experiment: BLI (Octet Red96), biotinylated EXT608 on streptavidin tips, DBP 0-75 µM
[6] = molecular target: T2, Vitamin D binding protein (DBP) (Homo sapiens (Human)); experiment: BLI (Octet Red96), biotinylated EXT608 on streptavidin tips, DBP 0-75 µM, steady-state fit

- PTHR1 EC50, calcium mobilization assay in agonist mode [1]: 30.5 nM
Binder: SVSEIQLMHNLGKHLNSMERVEWLRKKLQDVHNFC-NH2 (not fully specified (residue 35); also: acetate salt) [EXT606 (PTH-cys-PEG24-VitD)]

- PTHR1 EC50, calcium mobilization assay in agonist mode [1]: 32.3 nM
Binder: SVSEIQLMHNLGKHLNSMERVEWLRKKLQDVHNFC-NH2 (not fully specified (residue 35); also: acetate salt) [EXT611 (PTH-cys-PEG12-VitD)]

- Kd [2]: 8100 nM
- EC50, cell-based calcium flux assay in agonist mode (percent efficacy) [3]: 21 nM
- maximum response (BLI shift) [4]: 1.79 nm
B1: EXT607 (PTH(1-34)-Cys-PEG36-25-hydroxy-vitamin D conjugate, C-terminal acid, R = OH) (peptide)
peptide: SVSEIQLMHNLGKHLNSMERVEWLRKKLQDVHNFC
modifications: C-terminal Cys (position 35) carries succinimido-propionylamino-PEG36-propionyl-aminopropyl-25-hydroxy-Vitamin D on its thiol; C-terminus is free acid (-OH)

- EC50, cell-based calcium flux assay in agonist mode (percent efficacy) [3]: 22 nM
- maximum response (BLI shift) [5]: 1.79 nm
- Kd [6]: 5200 nM
- PTHR1 EC50, calcium mobilization assay in agonist mode [1]: 28.6 nM
B2: EXT608 (PTH(1-34)-Cys-PEG36-25-hydroxy-vitamin D conjugate, C-terminal amide, R = NH2) (peptide)
peptide: SVSEIQLMHNLGKHLNSMERVEWLRKKLQDVHNFC
modifications: C-terminal Cys (position 35) carries succinimido-propionylamino-PEG36-propionyl-aminopropyl-25-hydroxy-Vitamin D on its thiol; C-terminal amide (-NH2)

- fold increase of PTHR1 EC50 against the conjugates with shorter PEG linkers [3]: ~7 fold
- PTHR1 EC50, calcium mobilization assay in agonist mode [1]: 221 nM
B3: EXT617 (PTH-PEG20 kDa-VitD) (peptide)
peptide: SVSEIQLMHNLGKHLNSMERVEWLRKKLQDVHNFC
modifications: C-terminal Cys thiol conjugated through maleimide-PEG ~20,000 Da (~455 units) to VitD-NH2 (25-hydroxy vitamin D, C3 position); C-terminal amide

- PTHR1 EC50, calcium mobilization assay in agonist mode [1]: 33.6 nM
B4: EXT616 (PTH-PEG10 kDa-VitD) (peptide)
peptide: SVSEIQLMHNLGKHLNSMERVEWLRKKLQDVHNFC
modifications: C-terminal Cys thiol conjugated through maleimide-PEG ~10,000 Da (~227 units) to VitD-NH2 (25-hydroxy vitamin D, C3 position); C-terminal amide

- PTHR1 EC50, calcium mobilization assay in agonist mode [1]: 29.9 nM
Binder: SVSEIQLMHNLGKHLNSMERVEWLRKKLQDVHNFC-NH2 (not fully specified (residue 35); also: acetate salt) [EXT615 (PTH-PEG5 kDa-VitD)]
